From the domain aggregation screens of Martell et al. (2025)

assay: soluble fraction after stress (log2 fold change); higher = more stays soluble; pooled small domains, quantitative proteomics; conditions: stress: 75 degC
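Note: 20 min heating vs room temperature control held 20 min.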

| Sequence | soluble fraction (log2) |
| --- | --- |
| HMKMSLKENLLELLQKSSGEFLSGERAAETLGVSRTAVWKAVTSLKNEGYNIESVTNRGYRFS | -0.34 |
| HMKNANGYGSITKLKGNRRKPYMVRITVGRDENGFPIRKVLGYYSSKANAVAALSDYNREPYDI | -1.78 |
| HMKNENSLLVSRLAEEKIINRAKLVLMEYLKLSEPQAHRYIEKQAMDLQISRAEVAARVLETYE | -1.35 |
| HMKNEVENLSYMINRIIEYRDLNNLSNKNLANKIGISEALLSYILNGRRKLSKEIQRKIALFLLND | -1.99 |
| HMKNFAPVWGEEGAEFGKEVDTGFRLRIVEKEKDVNDLFEVIQKHTIQSQWKPGSTGTESIYKRI | 0.886 |
| HMKNHIEERRKARGMTQQQLASELGVSRQTIISLENGKYNPSILLAHSIARLFGERIEDIFILR | -2.45 |
| HMKNINTNIGKNLKRIRKLRGLTIDALATSSGVSKSMISEIERGIRNPSITIIWSLANALKTPLNYFLKE | -1.46 |
| HMKNKFYEEFSDYIFKHTGIHYAEANYYQLDARINKLMKFLETSDENDVLKAIQGGAVKDQRVHQMIVDLA | -2.16 |
| HMKNKRERLGIISEILRMQVIGSQEELLDILRAKGYDVTQATLSRDLKVLKVAKTPLSNGAYKYVLPPQ | -1.39 |
| HMKNLSQAEFMYLFKILAFGSTDPDNHPEMAATGMEIAKMLQGLLLSGNVLADILRKNQNVQFWL | 0.0572 |
| HMKNNITFSEFLHEVDNGRVIKVNIQGNNITGILADGKSFNTYTPNDPSLIEKLTSKGVSISATPI | 0.13 |
| HMKNNLKGSPIIIAGGYGVGSKENFNLLFDLAKVLNAEVGASRAAVDAGFVEHDRQIGQTGVTVRP | 0.143 |
| HMKNNYQYIVDQIKQLILDGELIVGDRLPSERDLSEMYQVSRASVREALKALETIGLLESRHGGGNYIVNH | -1.28 |
| HMKNQIGFKIKNARRKASISQADLSAKLGISSSYLNLIESGKRNVNVDLLLKVSDVLNIELKDLSK | -2.06 |
| HMKNTYTVVSGDTLWGIASRKLGGGSNWTKIYDANAATIESVANRRRGGRGSDHGHWIYPGTVLTI | -0.298 |
| HMKNYYRILGLNIDAEYEEIKAAYRILAQRHHPDKGGAAAEFRLIQEAYDILSNPLTKRNYDADLLATLN | -2.65 |
| HMKPDMAVIVGSRTLTFATTTDRQILVLRTDGTMVNRLSMKAGETRTITLPAGVYIVNGKKIIV | -2.35 |
| HMKPFSLESYKAFVVKRLGLFPETSSAQMHDWLKEEYPDFPLITPRTVYNFVMKIRQDYGIAKV | -3.43 |
| HMKPFVVVPIDQVRVGMFIQLDLGWMQHPFPVGSFRVASEAQIDTLRSLDLESVRYLPAKSDPAFQQP | -2.82 |
| HMKPGNFILDLLRTYGQKGTSAQNLMSSSRMFNFSENLIRVTLSRLAARGLIENFERGHYRLAE | -0.488 |
| HMKPGTIVTGVVVDIKSDVVVVNAGLKSEGIVPIEQFRNDRGELEVAIGDEVKVALDSLENGFGETVLSRE | -0.435 |
| HMKPQKRYLFEEVLTFLKHNSEKSFNYKQLGAAMEISNESDRFTLLETLEELKHQGFVVEKEIGKYQAKE | -1.25 |
| HMKPRVTVVTLGVDDLERAVRFYAEGLGFPTEGIVGREFEFGAVAFFDMQPGLRLALWPRRSLAHDSGLP | -0.373 |
| HMKPSISKIYALWGVLQRSGKIKSQDKAALDAFVRKYTGVDHVKWLDESQARKIIEILKQMIA | -1.55 |
| HMKPSKTDEAEYWLMERLEEGPQPAGDLIRIGEEFGYTPKILRDAGERFNMERYKDGLDHWMWKLPN | -0.154 |
| HMKPVTNHTVKFYVDDVLWKTVTVKHGGNVRLADLPMSDGKTFVGWSESVVNVTKDLTVFALFS | -1.96 |

| Sequence | soluble fraction (log2) |
| --- | --- |
| HMKPVYNKVEIPRGGEYALVLSDGTKVHLNSMSSLRFPVAFTTGKREVELQGEAYFEVSKTGQPFIVNV | 0.219 |
| HMKQGKGIIVVDGKLMPEDFNVATLSLDEVESITVLKGEKAVALYGEKAKEREVLLITTQKG | 0.427 |
| HMKQKAEVIFVSKTIMEALSKGVRLTPENLKSETELPIDDFYARLKELIDNGSVVESRENGESYLEAGN | -0.0162 |
| HMKQLNKRQDDILSLAEKEGYVSVENLAKTFTVSQQTIRRDINYLSDHEFLVRTHGGAFYSSG | -0.252 |
| HMKQNNYATKKELNFFVSRLISLLSYRDFFNPIEKKESMINNIEAIFTRSSLTSQELRTLHGIISNLVE | -3.57 |
| HMKQPNSYGSVHKLPGKRRKPWRVRKTSGWLLDEQSGTVKQQYITIGYYATKQEALIALADYNENP | -1.55 |
| HMKQQFTREQIIELMYKAYKKHKKKLNRVEIKKEKALPSYVTIGRYLNETSIKKIWEIVLSEKE | -1.22 |
| HMKQVEVESVIGKSEEAANSILTKAGLKVNIGYKEDSSKPTDTVLSQDPAPGEKVDEGTTVTIVVNNYKKP | 0.139 |
| HMKRANGTGSVFKLNGKRRNPWVARVTQGFDDKGRQKYVNLGYYKTKREAENELLSYNSNPYDAN | -0.238 |
| HMKREWKDDDPTVPAGWKVAWTTTSDNRAKIAFMSPDKKIFHSRKSALQHMLAAGTYAQSDIEKMTKGL | -0.315 |
| HMKRFSPPSIEEVDSYIREKGYTVDAERFVNFYESKGWYVGKNKMKNWRAAVATWQKEDNKRN | -0.226 |
| HMKRGDAYASEMIARLKEAHLIVMEGTLYPLLTRLKNDGLLSYRWEESTQGPPRKYYSITPVG | 0.151 |
| HMKRITGHLTEKNKKWYAVINLYDTDGKRKEKWQGLNLDANKGNKREAEHRLRQILDQYNTD | -0.258 |
| HMKRITKKQLSQQLEQFFSSQPGKKLTLKDIFRALHLDTHPLKMLAMDIMEEMAWDDFITKKGENAYQLNT | -0.916 |
| HMKRKAIDQSWQPDKEAIEILSKAGVNEEFIKEEIPEFILYWSEKGEESDTWNSKFIAQVRRQWAKTQH | -0.121 |
| HMKRQATLQIGSKRFGMDDLYFKFTVPFEDSEKLGTATIEAYNLSPATRNSIKKGMPIILNAGYEGDI | -0.425 |
| HMKRTMVEAAMVAKLFNLTVRRIQQLTQDGVLTTELVDKKRRYDLLLTVQKYIAYLQEKVAK | -3.41 |
| HMKRVVFFNGISWYHRTKELLDDMTTKYGKKGGFATPEEAEKSYWEYEERYKDRQRELQVAYLKN | -1.79 |
| HMKSDEGEIKKIVEEIISKNASVVEDYKKGKEVALQFLVGQGMKATKGSANPELLKKIILENI | 1.01 |
| HMKSDVVFDITDGTVKAMLKFNRSDVTILNNDGKNYYLFTANGEFTFKYQDGSGEYYEKTVYVDWLEDE | -2.25 |
| HMKSFIWKQYTVQITKKNVKNTNVRIKRDNPHVILMSIPYSATYKAGLLALETPHIRHWLDNYERKLKQ | -1.45 |
| HMKSIEVPNLINMTLRKAKIELIDNEFNLDTVIYEYNPNIREGRVSLQIPESGTILKSGSNISIHISKGIP | -1.6 |
| HMKSIPKIKWNSTLENIKNFEYQDNFFESKEMYDLLVSFYKYGFVIIKNIPTNNNFIVKFANSIGS | 0.0519 |
| HMKSISMANGNVQLRINGVLASSLEVAALSPEDIKRVEYHDNPGLRYGEGIDIVLDYITIKRT | -0.754 |
| HMKSISMSKLRHLLQLYVQGRSKKLISEQTGIARNTLKKYIKEFSEAGLSLEALLALSDKELEDLFVK | -2.86 |
